Assay results: patent publication US20210253662A1, “Long-Acting Recombinant GLP1-Fc-CD47 Protein and Preparation and Use Thereof” (ZHEJIANG PALO ALTO PHARMACEUTICALS, INC, priority 2018, published 2021)

Columns and labels:
[1] = background statement; cited from earlier work
[2] = Stability in rat serum in vitro, read as remaining activity in activating hGLP-1R; assay type: in vitro ADME; conditions: 37° C., activity at 0.03 nM, day 0 as 100%
From the text: The decay rate of protein activity indirectly reflects the stability of the protein in the serum.

Male C57BL/KsJ mice = assay: Intraperitoneal glucose tolerance test (IPGTT) after a single s.c. dose; assay type: in vivo; conditions: s.c. 30 nmol/kg
Protocol: Male C57BL/KsJ mice of 6 weeks old are randomized into a vehicle control group, a positive drug group and a test protein group according to body weights and blood glucose levels, and are subcutaneously (s.c.) injected with corresponding drugs. An intraperitoneal glucose tolerance test (IPGTT) is performed after dosing for a period of time following the steps as follows: fast the mice for 6 h, collect blood samples from tail veins of the mice in each group before the test, measure the blood glucose levels with a Roche ACCU-CHEK blood glucose meter and record the results at a −60 min time point; measure blood glucose levels again at 0 min in each group before intraperitoneally injecting 2 g/kg glucose (body weight), afterwards measure and record blood glucose levels of mice in each group at 15 min, 30 min, 60 min and 120 min. An IPGTT curve is plotted based on the blood glucose levels to calculate the areas under curve (AUC0-120 min (mM*min)), and the differences are statistically analyzed using the t-test.

human GLP-1 receptor = human GLP-1 receptor (human, UniProt P43220 24-463); assay: cell-based or functional assay

Molecule	Activity of Activated hGLP-1R (relative value from EC50, CRE-NanoLuc luciferase reporter in AD293 cells; 100% for GLP1 (7-37)) (human GLP-1 receptor)	also measured
L1: L1 protein (dulaglutide, SEQ ID NO.: 11), GLP-1-Fc fusion protein, positive control, dimer [reference compound]	–	half-life in vivo [1]: 108 to 113 h; Decrease in activity after 7 days of incubation in serum [2]: 33.3%; Decrease of area under curve (AUC) in blood glucose vs solvent control group (Male C57BL/KsJ mice; seven days after a single dose, IPGTT AUC0-120 min): 14.8%; Hypoglycemic activity (AUC) ten days post-dose (Male C57BL/KsJ mice; ten days after a single dose, IPGTT): no significant decrease
HGEGTFTSDVSSYLEEQAAKEFIAWLVRGGG [Gly8-Glu22-Arg34-Gly36-GLP1(7-37)]	163%	–
HGEGTFTSDVSSYLEEQAAKEFIAWLVRGAG [Gly8-Glu22-Arg34-Ala36-GLP1(7-37)]	168%	–

Further lines, with some results ahead:

Activity of Activated hGLP-1R (relative value from EC50, CRE-NanoLuc luciferase reporter in AD293 cells; 100% for GLP1 (7-37)) (human GLP-1 receptor)	Molecule	also measured
121%	HGEGTFTSDVSSYLEEQAAKEFIAWLVKGGG [Gly8-Glu22-Gly36-GLP1(7-37)]	–
142%	HGEGTFTSDVSSYLEEQAAKEFIAWLVRGVG [Gly8-Glu22-Arg34-Val36-GLP1(7-37)]	–
113%	HGEGTFTSDVSSYLEEQAAKEFIAWLVRGLG [Gly8-Glu22-Arg34-Leu36-GLP1(7-37)]	–
